Patent US20090208440

T1: substrate B
T1 chain: KKWLGRVPGGPV

T2: substrate A
T2 chain: LLWLGRVVGGPV


Columns and labels:
[1] = biological target: peptide with the desired target sequence of TNF-alpha
[2] = biological target: proteins from human blood serum
substrate B = biological target: T1, substrate B
substrate A = biological target: T2, substrate A

human TNF-alpha, sequence (chain, as listed by the source): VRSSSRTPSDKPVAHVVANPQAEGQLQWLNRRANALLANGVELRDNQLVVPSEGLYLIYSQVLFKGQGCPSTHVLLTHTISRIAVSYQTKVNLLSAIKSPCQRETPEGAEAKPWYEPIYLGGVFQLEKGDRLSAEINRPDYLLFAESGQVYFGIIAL

| Protein | k with comp./k without comp. [1] | rate constants of proteolytic digestion (proportional to kcat/KM), relative to human trypsin I (substrate B) | other results |
| --- | --- | --- | --- |
| variant e (protein) IVGGYNCEENSVPYQVSLNSGYHFCGGSLINEQWVVSAGHCYVNIMAAKSRIQVRLGEHNIEVLEGNEQFINAAKIIRHPQYDRKTLNNDIMLIKLSSRAVINARVSTISLPTAPPATGTKCLISGWGNTTARKTASSGADYPDELQCLDAPVLSQAKCEASYPGKITSNMFCVGFLEGGKDSCQGDSGGPVVCNGQLQGVVSWGDGCAQKNKPGVYTKVYNYVKWIKNTIAANS | 0.374 | – | – |
| variant f (protein) IVGGYNCEENSVPYQVSLNSGYHFCGGSLINEQWVVSAGHCYAAFNGDKSRIQVRLGEHNIEVLEGNEQFINAAKIIRHPQYDRKTLNNDIMLIKLSSRAVINARVSTISLPTAPPATGTKCLISGWGNRKDFWTASSGADYPDELQCLDAPVLSQAKCEASYPGKITSNMFCVGFLEGGKDSCQGDSGGPVVCNGQLQGVVSWGDGCAQKNKPGVYTKVYNYVKWIKNTIAANS | 0.487 | – | – |
| variant x (protein) IVGGYNCEENSVPYQVSLNSGYHFCGGSLINEQWVVSAGHCYAAFNGKSRIQVRLGEHNIGVLEGNEQFINAAKIIRHPQYDWKTLNNDIMLIKLSSRAVINARVSTISLPTAPPATGTKCLISGWGNRKDFWTASSGADFPDELQCLDAPVLSQTKCEASYPGKITSNMFCVGFLEGGKDSCQGDSGGPVVRNGQLQGVVSWGDGCAQKNKPGVYTKVYNYVKWIKNTIAANS | – | – | remaining intact protein as a function of time (proteolytic digestion) [2]: only trypsin shows activity on serum protein; remaining intact protein as a function of time (proteolytic digestion) (human TNF-alpha): the variants as well as human trypsin I digest human TNF-alpha |
| Variant 1 (protein) IVGGYNCEENSVPYQVSLNSGYHFCGGSLINEQWVVSAGHCYDAVGRDKSRIQVRLGEHNIEVLEGNEQFINAAKIIRHPQYDRKTLNNDIMLIKLSSRAVINARVSTISLPTAPPATGTKCLISGWGNTITNSTASSGADYPDELQCLDAPVLSQAKCEASYPGKITSNMFCVGFLEGGKDSCQGDSGGPVVCNGQLQGVVSWGDGCAQKNKPGVYTKVYNYVKWIKNTIAANS | – | the specific activity of variants 1 and 2 is shifted (SEQ ID NOs: 2 and 3, respectively) towards substrate B | – |
| Variant 2 (protein) IVGGYNCEENSVPYQVSLNSGYHFCGGSLINEQWVVSAGHCYNGRDLEKSRIQVRLGEHNIEVLEGNEQFINAAKIIRHPQYDRKTLNNDIMLIKLSSRAVINARVSTISLPTAPPATGTKCLISGWGNVRGTWTASSGADYPDELQCLDAPVLSQAKCEASYPGKITSNMFCVGFLEGGKDSCQGDSGGPVVCNGQLQGVVSWGDGCAQKNKPGVYTKVYNYVKWIKNTIAANS | – | the specific activity of variants 1 and 2 is shifted (SEQ ID NOs: 2 and 3, respectively) towards substrate B | – |
| Variant 3 (protein) IVGGYNCEENSVPYQVSLNSGYHFCGGSLINEQWVVSAGHCYAATNGDKSRIQVRLGEHNIEVLEGNEQFINAAKIIRHPQYDRKTLNNDIMLIKLSSRAVINARVSTISLPTAPPATGTKCLISGWGNRKDFWTASSGADYPDELQCLDAPVLSQAKCEASYPGKITSNMFCVGFLEGGKDSCQGDSGGPVVCNGQLQGVVSWGDGCAQKNKPGVYTKVYNYVKWIKNTIAANS | – | serves as a negative control with similar activities as the human trypsin I | rate constants of proteolytic digestion (proportional to kcat/KM), relative to human trypsin I (substrate A): serves as a negative control with similar activities as the human trypsin I |
| variant a (protein) IVGGYNCEENSVPYQVSLNSGYHFCGGSLINEQWVVSAGHCYRPWDPSKSRIQVRLGEHNIEVLEGNEQFINAAKIIRHPQYDRKTLNNDIMLIKLSSRAVINARVSTISLPTAPPATGTKCLISGWGNVHPTSTASSGADYPDELQCLDAPVLSQAKCEASYPGKITSNMFCVGFLEGGKDSCQGDSGGPVVCNGQLQGVVSWGDGCAQKNKPGVYTKVYNYVKWIKNTIAANS | 0.13 | – | – |
| variant b (protein) IVGGYNCEENSVPYQVSLNSGYHFCGGSLINEQWVVSAGHCYGFVMFNKSRIQVRLGEHNIEVLEGNEQFINAAKIIRHPQYDRKTLNNDIMLIKLSSRAVINARVSTISLPTAPPATGTKCLISGWGNRSPLTTASSGADYPDELQCLDAPVLSQAKCEASYPGKITSNMFCVGFLEGGKDSCQGDSGGPVVCNGQLQGVVSWGDGCAQKNKPGVYTKVYNYVKWIKNTIAANS | 0.187 | – | – |
| variant c (protein) IVGGYNCEENSVPYQVSLNSGYHFCGGSLINEQWVVSAGHCYEIANREKSRIQVRLGEHNIEVLEGNEQFINAAKIIRHPQYDRKTLNNDIMLIKLSSRAVINARVSTISLPTAPPATGTKCLISGWGNRGARTTASSGADYPDELQCLDAPVLSQAKCEASYPGKITSNMFCVGFLEGGKDSCQGDSGGPVVCNGQLQGVVSWGDGCAQKNKPGVYTKVYNYVKWIKNTIAANS | 0.235 | – | – |
| variant d (protein) IVGGYNCEENSVPYQVSLNSGYHFCGGSLINEQWVVSAGHCYKAVVGTKSRIQVRLGEHNIEVLEGNEQFINAAKIIRHPQYDRKTLNNDIMLIKLSSRAVINARVSTISLPTAPPATGTKCLISGWGNRTPISTASSGADYPDELQCLDAPVLSQAKCEASYPGKITSNMFCVGFLEGGKDSCQGDSGGPVVCNGQLQGVVSWGDGCAQKNKPGVYTKVYNYVKWIKNTIAANS | 0.31 | – | – |
